We go through one molecule from paper PMC7144898 (Nucleic Acids Research, 2020).

The target in the assay is T1, Recombinant N-terminal (His)6-tagged P. abyssi ASH-Ski2, full length (Pyrococcus abyssi, UniProt Q9V2M1 1-855).
T1 sequence (looked up): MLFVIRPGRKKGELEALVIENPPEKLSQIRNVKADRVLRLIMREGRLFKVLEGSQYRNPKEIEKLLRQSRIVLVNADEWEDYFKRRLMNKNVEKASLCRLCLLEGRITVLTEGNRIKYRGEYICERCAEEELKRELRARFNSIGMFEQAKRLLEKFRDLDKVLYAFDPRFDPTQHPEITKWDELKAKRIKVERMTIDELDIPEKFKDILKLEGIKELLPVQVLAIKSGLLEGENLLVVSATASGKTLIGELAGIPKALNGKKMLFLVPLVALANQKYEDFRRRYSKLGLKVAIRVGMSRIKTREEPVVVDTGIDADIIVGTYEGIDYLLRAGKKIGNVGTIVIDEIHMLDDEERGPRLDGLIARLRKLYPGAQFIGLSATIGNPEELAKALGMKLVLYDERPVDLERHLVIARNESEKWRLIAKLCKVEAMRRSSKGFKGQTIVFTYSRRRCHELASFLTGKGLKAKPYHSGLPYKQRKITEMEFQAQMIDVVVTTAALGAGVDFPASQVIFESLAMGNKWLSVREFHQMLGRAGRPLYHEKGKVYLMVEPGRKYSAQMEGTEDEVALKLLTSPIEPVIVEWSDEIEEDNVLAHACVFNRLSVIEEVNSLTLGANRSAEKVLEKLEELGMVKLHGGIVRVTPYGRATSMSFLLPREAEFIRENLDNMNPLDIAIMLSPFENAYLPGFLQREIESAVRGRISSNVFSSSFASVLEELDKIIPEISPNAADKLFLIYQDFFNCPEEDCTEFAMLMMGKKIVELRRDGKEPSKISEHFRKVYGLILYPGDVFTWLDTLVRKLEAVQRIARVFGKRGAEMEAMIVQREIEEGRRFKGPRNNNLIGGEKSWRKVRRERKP
Kind of assay: co-sedimentation.

B1: Recombinant aRNase J from P. abyssi with C-terminal (His)6-tag (enzyme, Pyrococcus abyssi, UniProt Q9V076 1-451, looked up)
chain: MWEEINMIKIYTLGGYEEVGKNMTAVEYNGEVVIVDMGIRLDRVLIHEDVEFQKMSSKDLRKLGAIPDDRPIRNKKVVAIALSHGHLDHIGAVGKLAPHYPDVPIYGTPYTIRLAKSEIKGEEYFEVTNPLYETNYGEIVQVSENLAIEFVQITHSIPQSSIVVIHTPEGAVVYACDYKFDNNHPYGERPDYKRLKELGKEGVKVLIAESTRVAEETKTPSEAVAKMLLEDFFLYEGMEADGLIATTFASHIARLQELIEIANKMGRQAIFIGRSLAKYTGIAKQLGLIKMKGSRVLRSPNAVSKVLKEVSQARENYLLIVTGHQGEPGAILTRMANGELYDIGPRDTVVFSAGVIPNPLNVAQRYALETKLRMKGVRMIKNLHVSGHASKEDHRYLIRMLNPEYIVPAHGEFRMLTHYAELAEEEGYMIGKEVFISRNGHVVEIPGSLEG
In the case of B1, the binding result is on record as “binds”.
